Data: US20050064507A1, “Determining kinase specificity” (priority 2003, published 2005)

Legend:
PKC-theta = target: T1, PKC-theta (Homo sapiens, UniProt Q04759); assay: In vitro kinase assay: peptide phosphorylation by PKC-theta; type: biochemical; conditions: for PKC theta phosphorylation: normalized to best substrate
T1 construct: His-tag; made in house; host or cells: baculovirus-infected Sf9 cells
Method in brief: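 Recombinant human PKC-theta, expressed in baculovirus-infected Sf9 cells and purified on a nickel chelating column, was incubated with biotinylated peptides, 100 μM ATP containing ^32P-gamma ATP, and PKC buffer with CaCl2, MgCl2, phosphatidyl serine and PMA at 30° C. Reactions were stopped with ATP/EDTA. Peptides were captured on streptavidin-coated plates, and phosphorylation was normalized to the best substrate.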

PKC-alpha = target: T2, PKC-alpha (Homo sapiens, UniProt P17252); assay: In vitro kinase assay: peptide phosphorylation by PKC-alpha; type: biochemical; conditions: for PKC alpha phosphorylation: normalized to best substrate
T2 construct: purchased Calbiochem
Protocol: Catalytically active preparations of the kinases of interest were either purchased or prepared. Purchased and tested active kinase preparations including the following: PKC-alpha, PKC-delta, PKC-epsilon, PKC-zeta, PKC-mu, PKA, PKG from Calbiochem, ROK alpha/ROCK-II, active from Upstate Biotechnology, and AKT1 from Panvera.
The conditions of the kinase assay and the amount of active kinase used varied with the kinase and with the accuracy needed. For a typical experiment, 5-20 ng of kinase was used per well and each peptide pool was assayed in duplicate wells. Note that the absolute amount of kinase used was not usually a critical parameter, because the desired information related to specificity of the kinase not its absolute activity, and robustness of the assay depends on comparisons of the same amount of kinase on different peptides. The combination of kinase concentration and assay duration was modified to assure that the stoichiometry of peptide phosphorylation never exceeded 5%. The choice of kinase buffer depended on the kinase being analyzed. For studies of PKC, 100 mM HEPES, 0.05% Triton-X100, 1 mM CaCl2, 20 mM MgCl2, 0.2 mg/ml phosphatidyl serine (Avanti Polar Lipids), PMA 100 ng/ml was typically used. The lipid stock was prepared by transferring 3 mg phosphatidyl serine into iced mixture of 450 μl water plus 50 μl of 10% Triton-X100, sonicating 10 times on ice for 1 sec each.
The kinase reaction mixture was assembled by sequential addition to a tube held on ice of: 5 μl peptide (100 μM for final concentration of 10 μM), 15 μl of kinase (typically 5 ng/well, in appropriate kinase buffer), 30 μl of ATP (1 uCi/well of ^32P-gamma ATP in a stock of 167 μM cold ATP in the kinase buffer; for final concentration for 100 μM ATP). The mixture was rapidly warmed to desired reaction temperature (30° C. for PKC) and incubated for the desired duration (usually 10 minutes). The kinase assay was terminated by transfer to 4° C. water batch, and rapid addition of an equal volume (50 μl) of stop solution [0.1M ATP+0.1M EDTA in water, pH 8].
The peptides were then captured from the reaction mixture by transfer to a Reacti-Bind Streptavidin High Binding Capacity Coated Plates (HBC) (Pierce Biotechnology) as follows. The HBC plates were pre-rinsed three times with PBS/Tween PBS/Tween20 0.05% (PBS/Tween). Part of all of the reaction mixture was then transferred wells of a HBC plate pre-filled with 90 μl of phosphate-buffered saline (PBS); typically each aliquots of each phosphorylation reaction were transferred to duplicate HBC plates to assure accuracy by additional replication
For kinase assays done at the standard peptide concentration of 10 μM, the peptide concentration in the reaction mixture becomes 5 μM after addition of the stop solution; consequently 10 μl of the reaction (50 pMoles of peptide) was transferred to the HBC plate. More generally, the amount of reaction mixture transferred was estimated to be about 50 pMoles of peptide. […] The HBC plates were incubated for 0.5 to 1.5 hr at room temperature for complete binding of biotinylated peptides to plate-bound streptavidin. The HBC plates were then washed extensively with PBS/Tween. Five washes were done routinely and additional wash steps were added if the wash solution removed from the plate had measurable radioactivity as detected using a Geiger counter. This step is essential to obtaining a good the signal to noise ratio because the fraction of radioactivity incorporated in the peptides was a tiny fraction of the total in the reaction mixture. The wells were air-dried. A volume of 40-50 μl of microScint-20 (Packard Instruments) was added to each well. The plates were covered with stick-on film sheet. Radioactive emissions were measured in a TopCount NXT Microplate Scintillation and Luminescence Counter (Packard Instruments). Typically samples were counted for 5 minutes (or more) to improve the signal to noise ratio when counts were low. […]

T1 sequence (Q04759 whole entry): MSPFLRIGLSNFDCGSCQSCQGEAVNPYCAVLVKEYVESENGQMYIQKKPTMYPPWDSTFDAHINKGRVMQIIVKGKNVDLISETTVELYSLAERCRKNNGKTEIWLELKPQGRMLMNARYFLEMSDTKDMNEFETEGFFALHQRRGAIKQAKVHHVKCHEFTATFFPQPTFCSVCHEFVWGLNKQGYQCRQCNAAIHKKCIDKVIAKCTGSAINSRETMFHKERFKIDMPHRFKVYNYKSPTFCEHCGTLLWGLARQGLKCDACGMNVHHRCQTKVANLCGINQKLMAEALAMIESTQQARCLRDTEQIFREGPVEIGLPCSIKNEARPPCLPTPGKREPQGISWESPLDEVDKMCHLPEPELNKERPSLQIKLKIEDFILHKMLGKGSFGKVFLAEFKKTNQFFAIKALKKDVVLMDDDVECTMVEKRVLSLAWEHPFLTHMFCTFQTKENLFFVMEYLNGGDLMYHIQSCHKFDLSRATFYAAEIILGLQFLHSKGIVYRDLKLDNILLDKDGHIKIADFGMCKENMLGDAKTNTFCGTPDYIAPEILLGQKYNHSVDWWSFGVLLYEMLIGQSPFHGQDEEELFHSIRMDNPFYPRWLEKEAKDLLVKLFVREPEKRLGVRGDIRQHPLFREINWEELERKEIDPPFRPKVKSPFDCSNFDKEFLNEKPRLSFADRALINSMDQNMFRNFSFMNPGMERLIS

Substance | PKC theta phosphorylation (PKC-theta) [%] | PKC alpha phosphorylation (PKC-alpha) [%] | phosphorylation by PKC theta (PKC-theta; peptide concentration 1 uM) | phosphorylation by PKC theta (PKC-theta; peptide concentration 10 uM) | phosphorylation by PKC alpha (PKC-alpha; peptide concentration 1 uM) | phosphorylation by PKC alpha (PKC-alpha; peptide concentration 10 uM)
81 (KRERKTSSKSSVRKRR) [compound 81] | 46 | 62 |  |  |  | 
87 (RQGKRKTSIKRDTVNPL) [compound 87] | 65 | 46 |  |  |  | 
88 (KKPFKLSGLSFKRNRKE) [compound 88] | 38 | 48 |  |  |  | 
91 (VHYTSKDTLRKRHYWR) [compound 91] | 10 | 60 |  |  |  | 
97 (KKRSSKKEASMKKVVRP) [compound 97] | 31 | 37 |  |  |  | 
98 (AGPLRKSSLKKGGRL) [compound 98] | 22 | 25 |  |  |  | 
148 (RELEQLKAEYLERRASRRRA) [compound 148] |  |  | 34 | 34 | 19 | 22
149 (RVVQSVKHTKRKSSTVMK) [compound 149] |  |  | 13 | 14 | 33 | 52
150 (VDPFYEMLAARKKRISVKKK) [compound 150] |  |  | 35 | 35 | 12 | 11
151 (PQNSLKASNRKKKRTSFKRK) [compound 151] |  |  | 25 | 19 | 17 | 16
152 (DLIEGRKGAQIVKRASLKRG) [compound 152] |  |  | 31 | 30 | 13 | 12
153 (TYLLPDKSRQGKRKTSIKRD) [compound 153] |  |  | 22 | 18 | 17 | 22
